Laboratory results taken from publication PMC3001066 (Nucleic Acids Research, 2010).

Target: full-length hAPE1 (human apurinic/apyrimidinic endonuclease 1), recombinant, as immobilised for SPR (human, UniProt P27695 1-318)
Experiment: SPR

Sequence of full-length hAPE1 (human apurinic/apyrimidinic endonuclease 1), recombinant, as immobilised for SPR (P27695 whole entry): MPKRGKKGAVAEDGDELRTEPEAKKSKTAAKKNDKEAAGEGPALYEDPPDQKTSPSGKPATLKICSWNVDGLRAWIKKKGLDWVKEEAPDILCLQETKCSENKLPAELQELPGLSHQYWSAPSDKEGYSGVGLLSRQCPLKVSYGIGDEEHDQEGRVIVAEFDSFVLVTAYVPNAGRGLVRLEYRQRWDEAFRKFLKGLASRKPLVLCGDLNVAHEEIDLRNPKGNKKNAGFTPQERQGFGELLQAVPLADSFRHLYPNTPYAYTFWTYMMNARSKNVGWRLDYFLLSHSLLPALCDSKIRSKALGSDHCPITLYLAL

B1: N-terminal domain of NPM1 (residues 1-117) (domain or fragment, UniProt P06748 1-117, looked up)
chain: MEDSMDMDMSPLRPQNYLFGCELKADKDYHFKVDNDENEHQLSLRTVSLGAGAKDELHIVEAEAMNYEGSPIKVTLATLKMSVQPTVSLGGFEITPPVVLRLKCGSGPVHISGQHLV
- Kd: 668 ± 5 nM
